Assay results taken from US20140105889A1 (published 2014).

T1: FcγRIIb (human, UniProt P31994 43-217, limits assumed)
T1 construct: also called FcγIIB; FcgRIIb
T1 sequence: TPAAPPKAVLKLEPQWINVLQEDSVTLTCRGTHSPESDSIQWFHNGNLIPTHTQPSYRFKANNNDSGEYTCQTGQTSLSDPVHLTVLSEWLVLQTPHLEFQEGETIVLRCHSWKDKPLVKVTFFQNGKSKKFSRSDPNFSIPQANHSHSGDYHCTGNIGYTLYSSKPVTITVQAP

T2: FcγRIIa type H (human, UniProt P12318 36-217)
T2 construct: also called FcγRIIaH; FcγRIIa(H)
T2 sequence: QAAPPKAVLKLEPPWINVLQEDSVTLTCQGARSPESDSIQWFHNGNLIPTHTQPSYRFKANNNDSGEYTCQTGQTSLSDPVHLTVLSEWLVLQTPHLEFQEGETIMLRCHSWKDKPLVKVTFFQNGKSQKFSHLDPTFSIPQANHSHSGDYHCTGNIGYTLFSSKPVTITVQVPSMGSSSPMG


Tests used:
human FcRn = target: T3, human FcRn (human); assay: SPR (Biacore), pH 7.0, 25 C, antibody captured by Protein L, human FcRn as analyte
T3 construct: also called hFcRn; soluble human FcRn complexed with β2-microglobulin
T3 sequence (chain, as listed by the source limits assumed, chain 1 of 2): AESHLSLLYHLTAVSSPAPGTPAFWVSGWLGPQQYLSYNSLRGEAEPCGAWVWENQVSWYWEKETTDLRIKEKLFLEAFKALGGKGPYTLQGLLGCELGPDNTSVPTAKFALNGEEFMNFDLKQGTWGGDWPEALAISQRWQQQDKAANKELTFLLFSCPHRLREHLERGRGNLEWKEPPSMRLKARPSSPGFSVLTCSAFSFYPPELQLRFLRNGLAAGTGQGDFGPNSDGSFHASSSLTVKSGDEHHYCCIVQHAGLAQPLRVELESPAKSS
T3 sequence (P61769 21-119 limits assumed, chain 2 of 2): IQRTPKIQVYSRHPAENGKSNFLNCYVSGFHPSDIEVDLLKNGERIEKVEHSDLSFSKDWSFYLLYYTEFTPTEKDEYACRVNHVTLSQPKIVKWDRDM
Experimental: A kinetic analysis of binding between human FcRn and the aforementioned antibodies was carried out using the Biacore T100 or T200 (GE Healthcare). The antibodies being tested were captured on the CM4 Sensor Chip (GE Healthcare) on which a suitable amount of Protein L (ACTIGEN) was suitably immobilized by amine coupling. Next, diluted human FcRn and a running buffer used as a blank were injected to allow the human FcRn to interact with the antibody captured on the sensor chip. A buffer consisting of 50 mmol/L sodium phosphate, 150 mmol/L NaCl and 0.05% (w/v) Tween 20 (pH 7.0 or pH 7.4) was used for the running buffer, and each buffer was also used to dilute the human FcRn. 10 mmol/L glycine-HCl (pH 1.5) was used to regenerate the sensor chip. All measurements of binding were carried out at 25° C. The KD(M) of each antibody to human FcRn was calculated based on kinetics parameters, i.e., the association rate constant ka (1/Ms) and the dissociation rate constant kd (1/s) calculated from a sensorgram obtained by the measurement. The Biacore T100 or T200 Evaluation Software (GE Healthcare) was used to calculate each parameter.

FcγRIIIa type V = target: T4, FcγRIIIa type V (human, UniProt P08637 17-208, limits assumed); assay: SPR (Biacore), antibody captured on chip, FcγR as analyte, method of Example 14
T4 construct: Soluble analyte in Biacore; also called FcγRIIIaV; FcγRIIIa(V)
T4 sequence (P08637 other isoform, or with tags, fused parts or gaps limits assumed): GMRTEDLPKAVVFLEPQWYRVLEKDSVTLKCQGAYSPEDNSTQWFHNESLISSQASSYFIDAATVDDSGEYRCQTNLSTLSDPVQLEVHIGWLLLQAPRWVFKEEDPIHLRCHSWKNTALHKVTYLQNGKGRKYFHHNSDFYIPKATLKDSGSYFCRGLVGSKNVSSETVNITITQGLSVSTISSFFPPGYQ

FcγRIIb [1] = target: T1, FcγRIIb; assay: ratio of SPR KD values of this variant (FcγRIIaR over FcγRIIb)
Text: (§1) Furthermore, KD(IIaR)/KD(IIb) and KD(IIaH)/KD(IIb) in the table respectively represent the value obtained by dividing the KD value of each variant for FcγRIIaR by the KD value of each variant for FcγRIIb, and the value obtained by dividing the KD value of each variant for FcγRIIaH by the KD value of each variant for FcγRIIb.

FcγRIIa type H = target: T2, FcγRIIa type H; assay: SPR (Biacore), captured antibody, FcγR as analyte, method of Example 14
FcγRIIb [2] = target: T1, FcγRIIb; assay: ratio of SPR KD values of this variant (FcγRIIaH over FcγRIIb)
Text: as §1

Binder | Kd (human FcRn) | Kd (FcγRIIIa type V) | KD (IIaR)/KD (IIb) (FcγRIIb [1]) | Kd (FcγRIIa type H) | KD (IIaH)/KD (IIb) (FcγRIIb [2])
F1060 (antibody, human IgG1, kappa, name in EU numbering, copies: 2 + 2) heavy: QVQLQESGPGLVKPSETLSLTCAVSGHSISHDHAWSWVRQPPGEGLEWIGFISYSGITNYNPSLQGRVTISRDNSKNTLYLQMNSLRAEDTAVYYCARSLARTTAMDYWGEGTLVTVSSASTKGPSVFPLAPSSKSTSGGTAALGCLVKDYFPEPVTVSWNSGALTSGVHTFPAVLQSSGLYSLSSVVTVPSSSLGTQTYICNVNHKPSNTKVDKKVEPKSCDKTHTCPPCPAPELLGGPSVFLFPPKPKDTLYISRTPEVTCVVVDVSHEDPEVKFNWYVDGVEVHNAKTKPREEQYNSTYRVVSVLTVLHQDWLNGKEYKCKVSNKALPAPIEKTISKAKGQPREPQVYTLPPSRDELTKNQVSLTCLVKGFYPSDIAVEWESNGSPENNYKTTPPVLDSDGSFFLYSKLTVDKSRWQQGNVFSCSVMHEALHYHVTQKSLSLSP light: not shown | 0.143 µM | – | – | – | –
IL6R-BP206/IL6R-L (antibody, human IgG1, Anti-human IL-6 receptor IgG1 Fc variant) heavy: QVQLQESGPGLVKPSETLSLTCAVSGHSISHDHAWSWVRQPPGEGLEWIGFISYSGITNYNPSLQGRVTISRDNSKNTLYLQMNSLRAEDTAVYYCARSLARTTAMDYWGEGTLVTVSSASTKGPSVFPLAPSSKSTSGGTAALGCLVKDYFPEPVTVSWNSGALTSGVHTFPAVLQSSGLYSLSSVVTVPSSSLGTQTYICNVNHKPSNTKVDKKVEPKSCDKTHTCPPCPAPDLLGGDSVFLFPPKPKDTLMISRTPEVTCVVVDVSHEDGEVKFNWYVDGVEVHNAKTKPREEQYNSTYRVVSVLTVLHQDWLNGKEYKCKVSNKALPRPIEKTISKAKGQPREPQVYTLPPSRDELTKNQVSLTCLVKGFYPSDIAVEWESNGQPENNYKTTPPVLDSDGSFFLYSKLTVDKSRWQQGNVFSCSVMHEALHNHYTQESLSLSP light: DIQMTQSPSSLSASVGDRVTITCRASQDISSYLNWYQQKPGKAPKLLIYYTSRLHSGVPSRFSGSGSGTDFTFTISSLQPEDIATYYCQQGNTLPYTFGQGTKVEIK | – | 69 µM | – | – | –
IL6R-BP211/IL6R-L (antibody, human IgG1, Anti-human IL-6 receptor IgG1 Fc variant) heavy: QVQLQESGPGLVKPSETLSLTCAVSGHSISHDHAWSWVRQPPGEGLEWIGFISYSGITNYNPSLQGRVTISRDNSKNTLYLQMNSLRAEDTAVYYCARSLARTTAMDYWGEGTLVTVSSASTKGPSVFPLAPSSKSTSGGTAALGCLVKDYFPEPVTVSWNSGALTSGVHTFPAVLQSSGLYSLSSVVTVPSSSLGTQTYICNVNHKPSNTKVDKKVEPKSCDKTHTCPPCPAPDLLGGDSVFLFPPKPKDTLMISRTPEVTCVVVDVSDEDGEVKFNWYVDGVEVHNAKTKPREEQYNSTYRVVSVLTVLHQDWLNGKEYKCKVSNAALPRPIEKTISKAKGQPREPQVYTLPPSRDELTKNQVSLTCLVKGFYPSDIAVEWESNGQPENNYKTTPPVLDSDGSFFLYSKLTVDKSRWQQGNVFSCSVMHEALHNHYTQESLSLSP light: DIQMTQSPSSLSASVGDRVTITCRASQDISSYLNWYQQKPGKAPKLLIYYTSRLHSGVPSRFSGSGSGTDFTFTISSLQPEDIATYYCQQGNTLPYTFGQGTKVEIK | – | 75 µM | – | – | –
IL6R-BP203/IL6R-L (antibody, human IgG1, Anti-human IL-6 receptor IgG1 Fc variant) heavy: QVQLQESGPGLVKPSETLSLTCAVSGHSISHDHAWSWVRQPPGEGLEWIGFISYSGITNYNPSLQGRVTISRDNSKNTLYLQMNSLRAEDTAVYYCARSLARTTAMDYWGEGTLVTVSSASTKGPSVFPLAPSSKSTSGGTAALGCLVKDYFPEPVTVSWNSGALTSGVHTFPAVLQSSGLYSLSSVVTVPSSSLGTQTYICNVNHKPSNTKVDKKVEPKSCDKTHTCPPCPAPELLGDDSVFLFPPKPKDTLMISRTPEVTCVVVDVSHEDGEVKFNWYVDGVEVHNAKTKPREEQYNSTYRVVSVLTVLHQDWLNGKEYKCKVSNKALPRPIEKTISKAKGQPREPQVYTLPPSRDELTKNQVSLTCLVKGFYPSDIAVEWESNGQPENNYKTTPPVLDSDGSFFLYSKLTVDKSRWQQGNVFSCSVMHEALHNHYTQESLSLSP light: DIQMTQSPSSLSASVGDRVTITCRASQDISSYLNWYQQKPGKAPKLLIYYTSRLHSGVPSRFSGSGSGTDFTFTISSLQPEDIATYYCQQGNTLPYTFGQGTKVEIK | – | 72 µM | – | – | –
IL6R-BP148/IL6R-L (antibody, human IgG1, EU numbering) heavy: QVQLQESGPGLVKPSETLSLTCAVSGHSISHDHAWSWVRQPPGEGLEWIGFISYSGITNYNPSLQGRVTISRDNSKNTLYLQMNSLRAEDTAVYYCARSLARTTAMDYWGEGTLVTVSSASTKGPSVFPLAPSSKSTSGGTAALGCLVKDYFPEPVTVSWNSGALTSGVHTFPAVLQSSGLYSLSSVVTVPSSSLGTQTYICNVNHKPSNTKVDKKVEPKSCDKTHTCPPCPAPDYLGDDSVFLFPPKPKDTLMISRTPEVTCVVVDVSHEDPEVKFNWYVDGVEVHNAKTKPREEQYNSTYRVVSVLTVLHQDWLNGKEYKCKVSNAALPKPIEKTISKAKGQPREPQVYTLPPSRDELTKNQVSLTCLVKGFYPSDIAVEWESNGQPENNYKTTPPVLDSDGSFFLYSKLTVDKSRWQQGNVFSCSVMHEALHNHYTQESLSLSP light: DIQMTQSPSSLSASVGDRVTITCRASQDISSYLNWYQQKPGKAPKLLIYYTSRLHSGVPSRFSGSGSGTDFTFTISSLQPEDIATYYCQQGNTLPYTFGQGTKVEIK | – | – | 14.5 | 9 µM | 93.8
IL6R-BP176/IL6R-L (antibody, human IgG1, EU numbering) heavy: QVQLQESGPGLVKPSETLSLTCAVSGHSISHDHAWSWVRQPPGEGLEWIGFISYSGITNYNPSLQGRVTISRDNSKNTLYLQMNSLRAEDTAVYYCARSLARTTAMDYWGEGTLVTVSSASTKGPSVFPLAPSSKSTSGGTAALGCLVKDYFPEPVTVSWNSGALTSGVHTFPAVLQSSGLYSLSSVVTVPSSSLGTQTYICNVNHKPSNTKVDKKVEPKSCDKTHTCPPCPAPDLLGGDSVFLFPPKPKDTLMISRTPEVTCVVVDVSHEDPEVKFNWYVDGVEVHNAKTKPREEQYNSTYRVVSVLTVLHQDWLNGKEYKCKVSNDALPKPIEKTISKAKGQPREPQVYTLPPSRDELTKNQVSLTCLVKGFYPSDIAVEWESNGQPENNYKTTPPVLDSDGSFFLYSKLTVDKSRWQQGNVFSCSVMHEALHNHYTQESLSLSP light: DIQMTQSPSSLSASVGDRVTITCRASQDISSYLNWYQQKPGKAPKLLIYYTSRLHSGVPSRFSGSGSGTDFTFTISSLQPEDIATYYCQQGNTLPYTFGQGTKVEIK | – | – | 19.1 | 3 µM | 83.1
IL6R-BP177/IL6R-L (antibody, human IgG1, EU numbering) heavy: QVQLQESGPGLVKPSETLSLTCAVSGHSISHDHAWSWVRQPPGEGLEWIGFISYSGITNYNPSLQGRVTISRDNSKNTLYLQMNSLRAEDTAVYYCARSLARTTAMDYWGEGTLVTVSSASTKGPSVFPLAPSSKSTSGGTAALGCLVKDYFPEPVTVSWNSGALTSGVHTFPAVLQSSGLYSLSSVVTVPSSSLGTQTYICNVNHKPSNTKVDKKVEPKSCDKTHTCPPCPAPDYLGDDSVFLFPPKPKDTLMISRTPEVTCVVVDVSHEDGEVKFNWYVDGVEVHNAKTKPREEQYNSTYRVVSVLTVLHQDWLNGKEYKCKVSNDALPKPIEKTISKAKGQPREPQVYTLPPSRDELTKNQVSLTCLVKGFYPSDIAVEWESNGQPENNYKTTPPVLDSDGSFFLYSKLTVDKSRWQQGNVFSCSVMHEALHNHYTQESLSLSP light: DIQMTQSPSSLSASVGDRVTITCRASQDISSYLNWYQQKPGKAPKLLIYYTSRLHSGVPSRFSGSGSGTDFTFTISSLQPEDIATYYCQQGNTLPYTFGQGTKVEIK | – | – | 13.6 | 6.2 µM | 159
IL6R-BP178/IL6R-L (antibody, human IgG1, EU numbering) heavy: QVQLQESGPGLVKPSETLSLTCAVSGHSISHDHAWSWVRQPPGEGLEWIGFISYSGITNYNPSLQGRVTISRDNSKNTLYLQMNSLRAEDTAVYYCARSLARTTAMDYWGEGTLVTVSSASTKGPSVFPLAPSSKSTSGGTAALGCLVKDYFPEPVTVSWNSGALTSGVHTFPAVLQSSGLYSLSSVVTVPSSSLGTQTYICNVNHKPSNTKVDKKVEPKSCDKTHTCPPCPAPDLLGDDSVFLFPPKPKDTLMISRTPEVTCVVVDVSHEDGEVKFNWYVDGVEVHNAKTKPREEQYNSTYRVVSVLTVLHQDWLNGKEYKCKVSNKALPKPIEKTISKAKGQPREPQVYTLPPSRDELTKNQVSLTCLVKGFYPSDIAVEWESNGQPENNYKTTPPVLDSDGSFFLYSKLTVDKSRWQQGNVFSCSVMHEALHNHYTQESLSLSP light: DIQMTQSPSSLSASVGDRVTITCRASQDISSYLNWYQQKPGKAPKLLIYYTSRLHSGVPSRFSGSGSGTDFTFTISSLQPEDIATYYCQQGNTLPYTFGQGTKVEIK | – | – | 18.1 | 1.4 µM | 272
IL6R-BP181/IL6R-L (antibody, human IgG1, EU numbering) heavy: QVQLQESGPGLVKPSETLSLTCAVSGHSISHDHAWSWVRQPPGEGLEWIGFISYSGITNYNPSLQGRVTISRDNSKNTLYLQMNSLRAEDTAVYYCARSLARTTAMDYWGEGTLVTVSSASTKGPSVFPLAPSSKSTSGGTAALGCLVKDYFPEPVTVSWNSGALTSGVHTFPAVLQSSGLYSLSSVVTVPSSSLGTQTYICNVNHKPSNTKVDKKVEPKSCDKTHTCPPCPAPDLLGGDSVFLFPPKPKDTLMISRTPEVTCVVVDVSHEDGEVKFNWYVDGVEVHNAKTKPREEQYNSTYRVVSVLTVLHQDWLNGKEYKCKVSNAALPKPIEKTISKAKGQPREPQVYTLPPSRDELTKNQVSLTCLVKGFYPSDIAVEWESNGQPENNYKTTPPVLDSDGSFFLYSKLTVDKSRWQQGNVFSCSVMHEALHNHYTQESLSLSP light: DIQMTQSPSSLSASVGDRVTITCRASQDISSYLNWYQQKPGKAPKLLIYYTSRLHSGVPSRFSGSGSGTDFTFTISSLQPEDIATYYCQQGNTLPYTFGQGTKVEIK | – | – | 20.3 | 2.6 µM | 182
